Assay results: the supplement of paper PMC10724198
± gives the standard deviation of the averaged measurements.

System: Saccharomyces cerevisiae
Assay: protein stability index of tFT-peptide fusion (C-terminal peptide) (PSI (0-1 scale)); higher = more stable (slower turnover)
Settings: temperature: 30 C
Procedure: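 MPS profiling in S. cerevisiae of the yeast C-terminome library: the last 12 aa of each annotated ORF are fused to the C-terminus of a sfGFP-mCherry timer, after a GGGS linker. Cells are FACS-sorted into 8 mCherry/sfGFP bins and deep-sequenced. PSI runs from 0 (unstable) to 1 (stable); wild type and das1Δ backgrounds, two technical replicates each.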

[1] = genetic background: das1 deletion

Sequence	protein stability index [1]	protein stability index (genetic background: wild type)
HEYVTINGDYRS [ARG7 C-terminal 12 aa]	0.679 ± 0.017	0.702 ± 0.032
HFASSLVSFLSK [ICT1 C-terminal 12 aa]	0.727 ± 0.028	0.7183 ± 0.0037
HIDIPDFAKWDI [SUL2 C-terminal 12 aa]	0.727 ± 0.013	0.719 ± 0.009
HLYSTLLFHSVN [RRG8 C-terminal 12 aa]	0.728 ± 0.013	0.543 ± 0.033
HNDNSGTVLGTA [RBD2 C-terminal 12 aa]	0.7 ± 0.017	0.728 ± 0.032
HNGKNKNRNSKK [MPP6 C-terminal 12 aa]	0.691 ± 0.03	0.669 ± 0.016
HPFLLWQGQVFF [YCR022C C-terminal 12 aa]	0.729 ± 0.012	0.6995 ± 0.0021
HQDSAKYTHYYL [YER158C C-terminal 12 aa]	0.696 ± 0.016	0.652 ± 0.0081
HTMENIFAGKLD [CUE4 C-terminal 12 aa]	0.7177 ± 0.0019	0.69 ± 0.011
IAKRFAKALGRS [ARN2 C-terminal 12 aa]	0.711 ± 0.0084	0.695 ± 0.016
IAQNVSRSSQQV [YMD8 C-terminal 12 aa]	0.6875 ± 0.00089	0.731 ± 0.016
ICKALVKQDLGL [LAP2 C-terminal 12 aa]	0.6972 ± 0.002	0.657 ± 0.035
IDIPISVRQVTK [BUL1 C-terminal 12 aa]	0.707 ± 0.0073	0.696 ± 0.013
IDKFLDHIGKSQ [FBP1 C-terminal 12 aa]	0.698 ± 0.025	0.703 ± 0.012
IDSIDDLVDSDT [NPP1 C-terminal 12 aa]	0.6907 ± 0.0066	0.685 ± 0.015
IEALYKLVEEKM [NQM1 C-terminal 12 aa]	0.701 ± 0.017	0.6797 ± 0.0027
IEKSKSDRRKLL [YHR022C C-terminal 12 aa]	0.728 ± 0.063	0.2695 ± 0.0021
IELQLTEIPKHK [FIN1 C-terminal 12 aa]	0.701 ± 0.022	0.727 ± 0.085
IGELLEGIRMSI [BIT2 C-terminal 12 aa]	0.694 ± 0.012	0.729 ± 0.091
IGPLAFLVFKTA [DYN2 C-terminal 12 aa]	0.67 ± 0.02	0.18 ± 0.011
IHENEESNENEG [RQC1 C-terminal 12 aa]	0.702 ± 0.0099	0.663 ± 0.011

Sequence	protein stability index [1]	protein stability index (genetic background: wild type)
IHYLLHIERERK [YOR385W C-terminal 12 aa]	0.683 ± 0.037	0.681 ± 0.014
IIRSEKKKKEEQ [YBR292C C-terminal 12 aa]	0.748 ± 0.041	0.659 ± 0.039
IKETIQRLTDDR [GMC2 C-terminal 12 aa]	0.661 ± 0.018	0.676 ± 0.015
IKIRIYSPRSIS [YDL240C-A C-terminal 12 aa]	0.715 ± 0.017	0.519 ± 0.021
IKKYNITSPFLD [NSE4 C-terminal 12 aa]	0.696 ± 0.022	0.686 ± 0.004
IKRRSNVGVVML [NMT1 C-terminal 12 aa]	0.6647 ± 0.003	0.6363 ± 0.0032
IKSVHVDLSLDK [ALD3 C-terminal 12 aa]	0.717 ± 0.022	0.704 ± 0.043
ILHERNIPLEKI [TPT1 C-terminal 12 aa]	0.709 ± 0.021	0.701 ± 0.048
ILIRKKLKAENI [OPY1 C-terminal 12 aa]	0.677 ± 0.021	0.646 ± 0.053
ILLHLEYAAAYS [STN1 C-terminal 12 aa]	0.521 ± 0.033	0.552 ± 0.02
INILPVRKKKKV [SAS4 C-terminal 12 aa]	0.705 ± 0.024	0.685 ± 0.036
INKASVKFFFFA [YJL119C C-terminal 12 aa]	0.637 ± 0.0095	0.227 ± 0.0039
INNTDITLYNDV [YPL068C C-terminal 12 aa]	0.707 ± 0.019	0.696 ± 0.056
IQELVNTIRELQ [YPL077C C-terminal 12 aa]	0.69 ± 0.018	0.642 ± 0.0078
IQISDVSMSPSL [PEX31 C-terminal 12 aa]	0.6811 ± 0.00011	0.717 ± 0.019
IQKDSMVHPGKK [VAC7 C-terminal 12 aa]	0.6694 ± 0.0052	0.663 ± 0.034
IQQTNSFLREII [YDL211C C-terminal 12 aa]	0.692 ± 0.0098	0.7056 ± 0.0041
IRLLTYLLRKIE [YLR230W C-terminal 12 aa]	0.654 ± 0.033	0.351 ± 0.023
ISFDLCGKQNFQ [MTC7 C-terminal 12 aa]	0.705 ± 0.056	0.719 ± 0.044
ISIALEGHTLFL [PDE1 C-terminal 12 aa]	0.715 ± 0.02	0.70608 ± 0.00038
ISIEELAQYLKK [RIB3 C-terminal 12 aa]	0.70628 ± 0.00065	0.672 ± 0.049

Sequence	protein stability index [1]	protein stability index (genetic background: wild type)
ISKLKGISKPSP [MDS3 C-terminal 12 aa]	0.682 ± 0.014	0.687 ± 0.023
ISNLPECLGNLC [ANR2 C-terminal 12 aa]	0.6968 ± 0.0047	0.6926 ± 0.006
ITKSSNKFVNNV [YNL043C C-terminal 12 aa]	0.665 ± 0.022	0.736 ± 0.091
ITLESGSYKFQD [SRP40 C-terminal 12 aa]	0.695 ± 0.025	0.639 ± 0.0026
ITSKRKAELLLK [DIS3 C-terminal 12 aa]	0.723 ± 0.062	0.7544 ± 0.007
IVRPLELKYFGR [FCY22 C-terminal 12 aa]	0.7236 ± 0.0033	0.688 ± 0.04
IWVVDSLGSLVG [YPL142C C-terminal 12 aa]	0.6847 ± 0.00084	0.699 ± 0.037
IYIQTPINDFKS [SLM1 C-terminal 12 aa]	0.705 ± 0.031	0.678 ± 0.013
IYKEKYMKQGPK [DSF2 C-terminal 12 aa]	0.701 ± 0.071	0.701 ± 0.084
IYYMEQMLGKTQ [HSK3 C-terminal 12 aa]	0.696 ± 0.038	0.696 ± 0.024
KALNEIFMITND [PXR1 C-terminal 12 aa]	0.723 ± 0.013	0.763 ± 0.033
KAPKSPEVIEID [UFD1 C-terminal 12 aa]	0.6978 ± 0.0035	0.684 ± 0.027
KARPFKCSDKKQ [MZM1 C-terminal 12 aa]	0.718 ± 0.016	0.72792 ± 0.00048
KDEPVKAHNKLK [SAS5 C-terminal 12 aa]	0.693 ± 0.011	0.654 ± 0.023
KDETPEDNLEDK [VBA3 C-terminal 12 aa]	0.6896 ± 0.00088	0.653 ± 0.017
KDNNISSYGSII [YPL162C C-terminal 12 aa]	0.693 ± 0.037	0.668 ± 0.011
KEANPIKITPQP [MDL2 C-terminal 12 aa]	0.682 ± 0.009	0.708 ± 0.0083
KELEPVPPVSKS [OMS1 C-terminal 12 aa]	0.7006 ± 0.007	0.671 ± 0.01
KEMWITGKIVED [IML1 C-terminal 12 aa]	0.672 ± 0.021	0.6639 ± 0.0055
KGCYKLCKNLLE [KEI1 C-terminal 12 aa]	0.686 ± 0.013	0.696 ± 0.043
KGDGKFWSSKKD [OM45 C-terminal 12 aa]	0.709 ± 0.0022	0.6744 ± 0.0029

Sequence	protein stability index [1]	protein stability index (genetic background: wild type)
KGFQFGLGLAFL [SAM50 C-terminal 12 aa]	0.736 ± 0.034	0.69 ± 0.019
KGHVHSPRHNND [YOR379C C-terminal 12 aa]	0.7103 ± 0.0065	0.713 ± 0.035
KGTCGCGESFMV [ISA1 C-terminal 12 aa]	0.71 ± 0.0094	0.69 ± 0.045
KHIDYRHAPGNI [RRN10 C-terminal 12 aa]	0.6875 ± 0.0066	0.69587 ± 0.00057
KHKNILSFNNNT [YDR543C C-terminal 12 aa]	0.687 ± 0.02	0.709 ± 0.041
KHPRPFRQEHRC [YLR162W C-terminal 12 aa]	0.6986 ± 0.0027	0.6577 ± 0.0057
KHQFLTKAKRFF [FET3 C-terminal 12 aa]	0.693 ± 0.0079	0.7186 ± 0.0014
KHVSGKILGFVY [RPS22A C-terminal 12 aa]	0.631 ± 0.045	0.63 ± 0.02
KIPKTYSELSCL [DUN1 C-terminal 12 aa]	0.693 ± 0.042	0.669 ± 0.037
KKLHEEYFGEDK [CRS1 C-terminal 12 aa]	0.673 ± 0.031	0.646 ± 0.032
KKMEARGQSIWV [RPN9 C-terminal 12 aa]	0.713 ± 0.0075	0.6728 ± 0.0014
KKNGYIYFYTRC [UBP14 C-terminal 12 aa]	0.69 ± 0.0087	0.6625 ± 0.0026
KKQKVVPLPTDI [SMM1 C-terminal 12 aa]	0.6919 ± 0.0007	0.654 ± 0.015
KKSKPRANKLTI [ECM2 C-terminal 12 aa]	0.713 ± 0.02	0.696 ± 0.017
KKYKFKLKFIKN [RNY1 C-terminal 12 aa]	0.7118 ± 0.006	0.642 ± 0.02
KLDLPNVFHKKG [CHS2 C-terminal 12 aa]	0.713 ± 0.027	0.706 ± 0.037
KLMVEEINLDID [FZO1 C-terminal 12 aa]	0.7048 ± 0.0045	0.747 ± 0.092
KLRNSNNTRAED [AVO2 C-terminal 12 aa]	0.67 ± 0.0067	0.672 ± 0.011
KLTSTVTLNLLY [YGR107W C-terminal 12 aa]	0.692 ± 0.019	0.697 ± 0.029
